Measured values from PMC6076264.

Target: ribosomal protein bL12 (E. coli (endogenous in ribosomes of strain MRE600)) (UniProt P0A7K2)
Chain of UniProt P0A7K2 (P0A7K2 whole entry): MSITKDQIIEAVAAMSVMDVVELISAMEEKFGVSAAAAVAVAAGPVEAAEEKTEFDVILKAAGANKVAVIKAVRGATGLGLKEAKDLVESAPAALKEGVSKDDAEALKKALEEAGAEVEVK

apparent affinity of RF1 for pre-hydrolysis complexes (PreHC, 0.01 uM) prepared with bL12-depleted (∆bL12) ribosomes, from peptide hydrolysis (10 s, 37 °C): 210 nM
apparent affinity of RF1 for pre-hydrolysis complexes (PreHC, 0.01 uM) prepared with wild-type ribosomes bearing bL12, from peptide hydrolysis (10 s, 37 °C): 9 nM
Substance: RF1 (wild type) (from UniProt P0A7I0 1-360) (natural protein)
